Target: the molecule itself
Assay: SAXS

B1: full-length Caenorhabditis elegans TDP2 (enzyme, UniProt Q9XWG3 1-362, looked up)
chain: MSNSDDEIQEIEAKRQKMSQEDSEVEIEILDEPEQGKLKNSSMSDEQKLHEFAIITATDEAFAQSILQDVDWDLKKALDVFYGSEAFAEARSAAVMGASSSMASSGAAVMTAEDLKGFEVSVMSWNIDGLDGRSLLTRMKAVAHIVKNVNPDILFLQEVVDRDLAPIDKLQSLYKIYYSNKGCQYYTAILVSKMFDVEKHDVIHFQNSGMYRTLQILEGSIGGLKVFLLNTHLESTREHRPQRCAQFGFCMDKVREIIAQNPGALVFFGGDLNLRDEEVSRVPDGVKDAWEAAGSDNKTKFTWDTFKNDNKQGFHGAKMRFDRLYWSGPLDKVKFTLEGRQRIRSCLCFPSDHWAINATFFA
stoichiometry N: 2

— paper PMC3515695 (Nature structural & molecular biology, 2012)
